Data: patent publication EP4740958A1 (QILU PHARMACEUTICAL CO., LTD., dated 2026)

Biological target: T1, recombinant human CCR8 protein (human, UniProt P51685 1-355, limits assumed)
T1 construct: Recombinant protein fixed on a CM5 chip by amino coupling (about 15 RU); also called human CCR8 recombinant protein
Assay: SPR (Biacore 8K), CCR8 fixed on CM5 chip by amino coupling, antibody 1 nM-31.25 pM as analyte, 1:1 model

T1 sequence (P51685 whole entry): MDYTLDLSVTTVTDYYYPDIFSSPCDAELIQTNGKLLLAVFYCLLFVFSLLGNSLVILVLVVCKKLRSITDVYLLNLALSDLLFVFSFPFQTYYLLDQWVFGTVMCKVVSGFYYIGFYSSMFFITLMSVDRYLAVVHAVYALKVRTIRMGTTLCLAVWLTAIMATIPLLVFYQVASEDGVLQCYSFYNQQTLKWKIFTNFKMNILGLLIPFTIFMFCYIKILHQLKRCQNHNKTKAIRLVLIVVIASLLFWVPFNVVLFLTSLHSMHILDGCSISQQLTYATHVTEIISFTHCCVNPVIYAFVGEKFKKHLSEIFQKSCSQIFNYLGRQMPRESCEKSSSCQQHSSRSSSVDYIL

B1: anti-human CCR8 monoclonal antibody J06 (antibody, human IgG1, kappa, V domains shown)
VH: EVQLVESGGGVVQPGRSLRLSCAASGFPFEPFAMNWVRQAPGKGLEWVARIRSKANNYATYYADSVKDRFAISRDNSKRTLYLLMHSLRFEDTAVYYCVRGRENNYGYAMDYWGQGTTVTVSS
VL: DVVMTQSPPSLPVTLGQSASISCRSSQSLLHSNGITYLYWFLQRPGQSPRLLIYRMSNLASGVPDRFSGSGSGTDFTLRISRVEAEDVGVYYCMQHLTYPFTFGIGTKVEIKR
notes: also called J06 preparation; anti-CCR8 Mab 1187
- Kd: 7.77 pM
- koff: 0.000131 s⁻¹
- kon: 1.69e+07 M⁻¹ s⁻¹
